The assay has as its target human CD147 on human cell lines (KYSE-70, H292, LS174T and other human-derived cell lines) (human) (UniProt P35613). Nature of the assay: FACS on the human KYSE-70 esophageal epithelial cell line, Alexa Fluor 647 anti-human IgG.

The values that follow come from patent WO2019173771A1.

Broadly, the Kd is the free concentration of one partner at which half of the binding sites on the other are occupied at equilibrium, for simple one-to-one binding. A higher Kd goes with lower affinity.

B1: humanized anti-human CD147 hu3A11 antibody (3A11 Lc1 / Hc1) (antibody, V domains shown)
VH: EVQLVESGGGLVQPGGSLRLSCAASGFTFSNYWMDWVRQAPGKGLEWVGEIRLKSYNYATHYAASVKGRFTISRDDSKNSVYLQMNSLKTEDTAVYYCTAAGTDYWGQGTLVTVSS
VL: DIQMTQSPSSLSASVGDRVTITCRASQSVRTDVGWYQQKPGKAPKLLIYYSSNRYTGVPSRFSGSGSGTDFTLTISSLQPEDFATYYCQQDYSSPYTFGQGTKLEIK
The molecule B1 had a Kd of 1.65 nM.
